According to CN110305216A (WUXI ZHIKANG HONGYI BIOTECHNOLOGY CO LTD, dated 2019):

Tests used:
人TIM-4 = target: T1, 人TIM-4 (human, UniProt Q96H15 25-314, limits assumed); experiment: ELISA, plate coated with human TIM-4
T1 sequence (looked up): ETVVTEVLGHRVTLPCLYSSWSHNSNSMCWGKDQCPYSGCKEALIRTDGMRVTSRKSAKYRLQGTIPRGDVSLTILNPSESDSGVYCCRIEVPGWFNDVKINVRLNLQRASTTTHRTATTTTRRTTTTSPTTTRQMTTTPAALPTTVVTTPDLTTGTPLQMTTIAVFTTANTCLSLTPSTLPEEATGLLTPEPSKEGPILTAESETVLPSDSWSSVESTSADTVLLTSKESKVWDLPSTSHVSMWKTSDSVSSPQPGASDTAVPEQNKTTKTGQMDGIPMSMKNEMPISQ

人TIM-1 = target: T2, 人TIM-1 (human, UniProt Q96D42 21-295, limits assumed); experiment: ELISA, plate coated with human TIM-1
T2 sequence (looked up): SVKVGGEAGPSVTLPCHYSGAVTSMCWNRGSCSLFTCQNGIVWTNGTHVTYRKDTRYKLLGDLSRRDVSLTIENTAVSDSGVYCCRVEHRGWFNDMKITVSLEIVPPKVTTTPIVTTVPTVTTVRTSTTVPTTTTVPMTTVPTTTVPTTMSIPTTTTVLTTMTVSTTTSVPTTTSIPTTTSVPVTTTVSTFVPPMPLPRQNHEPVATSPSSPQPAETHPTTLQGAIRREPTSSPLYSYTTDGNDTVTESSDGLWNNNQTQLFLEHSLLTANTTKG

binding result (人TIM-4): no binding
binding result (人TIM-1): no binding
B1: W3402-2.131.17-z3 (antibody, V domains shown)
VH: QVQLQESGPGLVKPSETLSLTCTVSGFSLTNYGVGWIRQPPGKGLEWIGIMTSGGSTYYNSALRARVTINRDTSKNQFSLKLSSVTAADTAVYYCTRDGTTVETLFDYWGQGTMVTVSS
VL: DIVMTQTPLSLSVTPGQPASISCRSSQSLSDSAGITYLYWYLQKPGQSPQLLIYLASNLGSGVPDRFSGSGSGTDFTLKISRVEAEDVGVYYCMQGIHVPLTFGQGTKLEIK
notes: Humanized monoclonal antibody with a kappa light chain; also called W3402-z3; 人源化变体W3402-z3
